Laboratory results: publication PMC9117670, “Structural basis for inhibition of the Cation-chloride cotransporter NKCC1 by the diuretic drug bumetanide” (Nature Communications, 2022)

Target: the molecule itself
Assay: cryo-EM structure; single-particle cryo-EM with bumetanide; low [Cl-] buffer: 20 mM HEPES pH 7.4, 50 mM Na2SO4, 25 mM K2SO4, 5 mM NaCl, 0.06% digitonin, bumetanide to 500 uM

B1: NKCC1iii (full-length human NKCC1 with K289N, A492E and L671C mutations) (natural protein, UniProt P55011 1-1212, looked up)
chain: MEPRPTAPSSGAPGLAGVGETPSAAALAAARVELPGTAVPSVPEDAAPASRDGGGVRDEGPAAAGDGLGRPLGPTPSQSRFQVDLVSENAGRAAAAAAAAAAAAAAAGAGAGAKQTPADGEASGESEPAKGSEEAKGRFRVNFVDPAASSSAEDSLSDAAGVGVDGPNVSFQNGGDTVLSEGSSLHSGGGGGSGHHQHYYYDTHTNTYYLRTFGHNTMDAVPRIDHYRHTAAQLGEKLLRPSLAELHDELEKEPFEDGFANGEESTPTRDAVVTYTAESKGVVKFGWINGVLVRCMLNIWGVMLFIRLSWIVGQAGIGLSVLVIMMATVVTTITGLSTSAIATNGFVRGGGAYYLISRSLGPEFGGAIGLIFAFANAVAVAMYVVGFAETVVELLKEHSILMIDEINDIRIIGAITVVILLGISVAGMEWEAKAQIVLLVILLLAIGDFVIGTFIPLESKKPKGFFGYKSEIFNENFGPDFREEETFFSVFEIFFPAATGILAGANISGDLADPQSAIPKGTLLAILITTLVYVGIAVSVGSCVVRDATGNVNDTIVTELTNCTSAACKLNFDFSSCESSPCSYGLMNNFQVMSMVSGFTPLISAGIFSATLSSALASLVSAPKIFQALCKDNIYPAFQMFAKGYGKNNEPLRGYILTFLIALGFILIAECNVIAPIISNFFLASYALINFSVFHASLAKSPGWRPAFKYYNMWISLLGAILCCIVMFVINWWAALLTYVIVLGLYIYVTYKKPDVNWGSSTQALTYLNALQHSIRLSGVEDHVKNFRPQCLVMTGAPNSRPALLHLVHDFTKNVGLMICGHVHMGPRRQAMKEMSIDQAKYQRWLIKNKMKAFYAPVHADDLREGAQYLMQAAGLGRMKPNTLVLGFKKDWLQADMRDVDMYINLFHDAFDIQYGVVVIRLKEGLDISHLQGQEELLSSQEKSPGTKDVVVSVEYSKKSDLDTSKPLSEKPITHKVEEEDGKTATQPLLKKESKGPIVPLNVADQKLLEASTQFQKKQGKNTIDVWWLFDDGGLTLLIPYLLTTKKKWKDCKIRVFIGGKINRIDHDRRAMATLLSKFRIDFSDIMVLGDINTKPKKENIIAFEEIIEPYRLHEDDKEQDIADKMKEDEPWRITDNELELYKTKTYRQIRLNELLKEHSSTANIIVMSLPVARKGAVSSALYMAWLEALSKDLPPILLVRGNHQSVLTFYS
notes: Human Na-K-2Cl cotransporter NKCC1, full length, with K289N, A492E and L671C; MBP followed by a TEV site was fused immediately before the N-terminus and removed with TEV protease before size exclusion and cryo-EM; Residues 927-1021 are not defined in the model; also called Lys289Asn/Ala492Glu/Leu671Cys NKCC1 transporter; NKCCiii; source: HEK293S GnTI-/- cells (BacMam system), purified (amylose …)
- stoichiometry N: 2

B2: NKCC1ii (full-length human NKCC1 with K289N and A492E mutations) (natural protein, UniProt P55011 1-1212, looked up)
chain: MEPRPTAPSSGAPGLAGVGETPSAAALAAARVELPGTAVPSVPEDAAPASRDGGGVRDEGPAAAGDGLGRPLGPTPSQSRFQVDLVSENAGRAAAAAAAAAAAAAAAGAGAGAKQTPADGEASGESEPAKGSEEAKGRFRVNFVDPAASSSAEDSLSDAAGVGVDGPNVSFQNGGDTVLSEGSSLHSGGGGGSGHHQHYYYDTHTNTYYLRTFGHNTMDAVPRIDHYRHTAAQLGEKLLRPSLAELHDELEKEPFEDGFANGEESTPTRDAVVTYTAESKGVVKFGWINGVLVRCMLNIWGVMLFIRLSWIVGQAGIGLSVLVIMMATVVTTITGLSTSAIATNGFVRGGGAYYLISRSLGPEFGGAIGLIFAFANAVAVAMYVVGFAETVVELLKEHSILMIDEINDIRIIGAITVVILLGISVAGMEWEAKAQIVLLVILLLAIGDFVIGTFIPLESKKPKGFFGYKSEIFNENFGPDFREEETFFSVFEIFFPAATGILAGANISGDLADPQSAIPKGTLLAILITTLVYVGIAVSVGSCVVRDATGNVNDTIVTELTNCTSAACKLNFDFSSCESSPCSYGLMNNFQVMSMVSGFTPLISAGIFSATLSSALASLVSAPKIFQALCKDNIYPAFQMFAKGYGKNNEPLRGYILTFLIALGFILIAELNVIAPIISNFFLASYALINFSVFHASLAKSPGWRPAFKYYNMWISLLGAILCCIVMFVINWWAALLTYVIVLGLYIYVTYKKPDVNWGSSTQALTYLNALQHSIRLSGVEDHVKNFRPQCLVMTGAPNSRPALLHLVHDFTKNVGLMICGHVHMGPRRQAMKEMSIDQAKYQRWLIKNKMKAFYAPVHADDLREGAQYLMQAAGLGRMKPNTLVLGFKKDWLQADMRDVDMYINLFHDAFDIQYGVVVIRLKEGLDISHLQGQEELLSSQEKSPGTKDVVVSVEYSKKSDLDTSKPLSEKPITHKVEEEDGKTATQPLLKKESKGPIVPLNVADQKLLEASTQFQKKQGKNTIDVWWLFDDGGLTLLIPYLLTTKKKWKDCKIRVFIGGKINRIDHDRRAMATLLSKFRIDFSDIMVLGDINTKPKKENIIAFEEIIEPYRLHEDDKEQDIADKMKEDEPWRITDNELELYKTKTYRQIRLNELLKEHSSTANIIVMSLPVARKGAVSSALYMAWLEALSKDLPPILLVRGNHQSVLTFYS
notes: Human Na-K-2Cl cotransporter NKCC1, full length, with K289N and A492E; MBP followed by a TEV site was fused immediately before the N-terminus and removed with TEV protease before size exclusion and cryo-EM; also called NKCCii; source: HEK293S GnTI-/- cells (BacMam system), purified (amylose resin, TEV protease, Superose 6) in digitonin; not shown: MBP, N-terminal, cleaved
- stoichiometry N: 2
